Measured values taken from patent US10517925B2, “Composition comprising KA11 polypeptide or gene encoding the same for inhibiting angiogenesis, and use thereof” (SEOUL NATIONAL UNIVERSITY R & DB FOUNDATION, priority 2015, dated 2019).
Entries after “also recorded” stand apart in the source; their conditions may differ.

Legend:
[1] = tested on: KAI1 expression in 10T1/2; test: blocking of the cytokine-induced decrease in KAI1 expression of 10T1/2 by inhibitor pre-treatment; format: cell-based, mouse; conditions: 10T1/2, 50 μM methylation inhibitor, then cytokine (VEGF-A, bFGF, PDGF-bb)
Description: Before 10T1/2 was treated with 40 ng/ml of a cytokine (VEGF-A, bFGF or PDGF-bb) selected in Example 8-1, a cytokine receptor inhibitor was treated beforehand. To this end, VEGF-A- and PDGF-bb-treated groups were treated with a tyrosine kinase inhibitor named SU11248, and a bFGF-treated group was pre-treated with a tyrosine kinase inhibitor named PD173074 for 2 hours, treated with 40 ng/ml of each cytokine (VEGF-A, bFGF, and PDGF-bb) as an angiogenic factor for 24 hours, and then harvested to confirm KAI1 expression through RT-qPCR and Western blotting, and the result is shown in FIGS. 29A and 29B.
To confirm signaling of the decrease in KAI1 expression in 10T1/2 by a cytokine, RT-qPCR and Western blotting were used to confirm whether the decrease in KAI1 expression in 10T1/2 by a cytokine was blocked by treating 10T1/2 with a signal molecule inhibitor (a Src, Pkc, TGF-β, MAPK, AKT, p53. or JAK inhibitor) before cytokine stimulation, and the result is shown in FIGS. 35 to 38.
10T1/2 was treated with 50 μM of a methylation inhibitor (5-azacytidine), and then treated with each cytokine (VEGF-A, bFGF, and PDGF-bb), which is an angiogenic factor, to confirm KAI1 expression, and the result is shown in FIG. 40.

[2] = tested on: KAI1 expression in 10T1/2; test: KAI1 expression of 10T1/2 treated with angiogenic cytokines (RT-qPCR, Western blotting, immunostaining); format: cell-based, mouse; conditions: for KAI1 expression: 10T1/2, 40 ng/ml cytokine, until 72 hours; for KAI1 expression after removal of the stimulant: 10T1/2 stimulated 24 hours, then fresh culture media
Description: That is, the change in KAI1 expression according to time (24 hrs, 48 hrs or 72 hrs) after 10T1/2 was treated with 40 ng/ml of each cytokine (VEGF-A, bFGF or PDGF-bb) was identified through RT-qPCR, Western blotting and immunostaining, and thus the results are shown in FIGS. 31A and 31B and 32. Here, each group of 10T1/2 was treated with 40 ng/ml of each cytokine (VEGF-A, bFGF, and PDGF-bb) as an angiogenic factor and cultured in RPMI 1640 HEPES supplemented with 10% (v/v) fetal bovine serum (FBS) and 1% antibiotics-antimycotics for up to 72 hours without change in a culture medium.
After FGF or PDGF stimulation was given to 10T1/2, 24 hours later, the media was changed with fresh culture media (general culture media), and then RT-qPCR and Western blotting were conducted to confirm whether there was a change in the decreased expression of KAI1. […] From the result, it can be seen that the decrease in KAI1 expression was reversible.

[3] = tested on: MS-1 / 10T1/2 hybrid spheroid; test: EC-pericyte hybrid spheroid sprouting in collagen; format: cell-based, mouse; conditions: culture media supplemented with KAI1 protein
Excerpt: Here, a mouse endothelial cell line (MS-1) was used as ECs and 10T1/2 was used as pericytes. In addition, KAI1 was overexpressed using an adenovirus in pericytes. In the manufacture of the spheroid, a ratio of the number of each type of cell (EC:pericyte) was 2:1, and the total cell number was fixed at 3×10^3. As culture media used to grow the spheroids, 10% FBS and 1% antibiotics-antimycotics-containing Dulbecco's modified eagle medium (DMEM) was used. In addition, effective EC sprouting was induced by a treatment of 100 ng/ml of recombinant human VEGF.
Afterwards, to verify an anticancer effect of a KAI1 protein treatment, B16 and an EC-pericyte hybrid spheroid were manufactured and embedded in collagen, and then a degree of vessel formation was observed by time. Here, a mouse endothelial cell line (MS-1) was used as ECs, and 10T1/2 was used as pericytes. In the manufacture of the spheroid, a ratio of the number of each type of cell (EC:pericyte) was 2:1, and the total cell number was fixed at 3×10^3. As culture media used to grow the spheroids, Dulbecco's modified eagle medium (DMEM) supplemented with 10% FBS and 1% antibiotics-antimycotics and a KAI1 protein was used. As a result, as shown in FIGS. 50A and 50B and 51, it can be confirmed that the sprouting of the KAI1 protein was inhibited in the spheroids. Therefore, an anticancer effect of the KAI1 protein was able to be expected.

mouse cornea = mouse cornea micropocket assay; format: in vivo; conditions: pellet containing both cytokine and protein, 10 days, similar to vehicle
Description: Based on the above-described in vitro experiment, a mouse cornea micropocket assay was performed to confirm whether angiogenesis was actually regulated by in vivo regulation of the KAI1 expression of pericytes. After a pocket formed by mixing cytokine, sucralfate and poly-hema (from which the cytokine was slowly secreted little by little) was manufactured and added to the mouse cornea, a degree of angiogenesis per experimental group was examined for 10 days. As a result, as shown in FIGS. 47A and 47B, it can be confirmed that, compared to a vehicle, angiogenesis in the mouse cornea injected with a pellet containing only a cytokine was added was much increased.

[4] = tested on: prostate cancer cell line (PC-3); test: PC-3 matrigel subcutaneous tumor mass formation in mice; format: in vivo, mouse; conditions: PC-3 with matrigel subcutaneously in mice, compared to vehicle
Excerpt: More specifically, a prostate cancer cell line (PC-3) was mixed with a matrigel and subcutaneously injected into mice, and then tumor mass formation was observed and compared per experimental group. […] In addition, it can be confirmed that tumor mass was smaller in a group injected with a supernatant of KAI1 O/E 10T1/2 than in a group injected with a supernatant of mock 10T1/2. After the tumor mass obtained in the above-mentioned experiment was fixed with PFA, the cross-section was formed into sections, and a degree of angiogenesis per experimental group was determined by IF. Antibodies used herein were BS-1 Lectin (EC marker, 488 fluorescence), α-SMA (Pericyte marker, 555 fluorescence), and DAPI (nucleus marker, 405 fluorescence).

retinal angiogenesis = test: retinal disease model mouse, injection into the orbit; format: in vivo; conditions: injected into the orbit of model mouse, immunofluorescence, compared with control (not treated)
Description: Retinal diseases such as diabetic retinopathy and central serous (chorio)retinopathy are diseases of the loss of eyesight as vessel permeability is increased by a VEGF, body fluids gather around the retina (macular edema), and pathological angiogenesis occur.
A KAI1 protein was injected into the orbit of a model mouse with such a disease, and a degree of angiogenesis inhibition was compared with a control (not treated).

With `Nc1ncn([C@@H]2O[C@H](CO)[C@@H](O)[C@H]2O)c(=O)n1` [5-azacytidine] the KAI1 gene expression [1] was “not decreased”.

“bFGF: typical angiogenic factor (cytokine)” was tested, and the KAI1 expression [2] was “continuously decreased” and the “KAI1 expression after removal of the stimulant” value [2] was “recovered again”.

B1: PDGF-bb: typical angiogenic factor (cytokine) (protein, UniProt P01127 82-190, looked up)
Platelet-derived growth …: SLGSLTIAEPAMIAECKTRTEVFEISRRLIDRTNANFLVWPPCVEVQRCSGCCNNRNVQCRPTQVQLRPVQVRKIEIVRKKPIFKKATVTLEDHLACKCETVAAARPVT
modifications: homodimer
For B1, the KAI1 expression [2] was “continuously decreased” and the “KAI1 expression after removal of the stimulant” value [2] was “recovered again”.

B2: KAI1 protein: KAI1(CD82) polypeptide, human-derived amino acid sequence of SEQ ID NO: 1 or mouse-derived SEQ ID NO: 2 (protein)
chain: MGAGCVKVTKYFLFLFNLLFFILGAVILGFGVWILADKNSFISVLQTSSSSLQVGAYVFIGVGAITIVMGFLGCIGAVNEVRCLLGLYFVFLLLILIAQVTVGVLFYFNADKLKKEMGNTVMDIIRNYTANATSSREEAWDYVQAQVKCCGWVSHYNWTENEELMGFTKTTYPCSCEKIKEEDNQLIVKKGFCEADNSTVSENNPEDWPVNTEGCMEKAQAWLQENFGILLGVCAGVAVIELLGLFLSICLCRYIHSEDYSKVPKY
In the case of B2, the “sprouting of B16 and EC-pericyte hybrid spheroids” value [3] is reported as “inhibited”, the “angiogenesis in the mouse cornea” value (mouse cornea) is reported as “no angiogenesis” and the tumor mass [4] is reported as “smaller”. The “angiogenesis in the presence of VEGF” value (retinal angiogenesis) was “angiogenesis was inhibited; also recorded: inhibition of angiogenesis”.
